From the DeepSol protein solubility set

test: soluble on expression in E. coli; label from the status in PepcDB or PDB records

Sequence | soluble on expression in E. coli
MNSRQQSILQMVVDKGQMSVAELAKITGVSEVTIRQDLNTLEKQSYLRRAHGFAVSLESDDVETRMMTNYTLKRRLAEFAASLVSPGESVFIENGSSNALLARTLAEQKDVTIITVSSYIAHLLKETPCEVILLGGIYQKKSESMVGPLTRQFIHQVHFSKAFIGIDGWQADTGFTGRDMMRSDVVNAVLEKGSEAIVLTDSSKFGCVHPYPLGPLSRFHRVITDSKISASDQMQLEHAGLLVNVIGSSVLEHHHHHH | soluble
MNSSSTLQKLLDRRGQAANGNSATQAVQWQEGMNLTLHVNGDSLTMLAEIINLRADPQDDILLRKLLAHAFPGLRLRRGALTINPDENTLVYSYEHDFLALDKTRFENLLANFAETTQELRNTAQRLR | not soluble
MNSYVKWIFVVLLICSLTAFVEKDKPTGGLSEGDVAPDFKIESASNGQPAFKLGNLKGKYVLLSFWASYDAQSRMQNVSLSNVLRSSRNVEMVSVSFDEYQSIFKETVRKDQIVTPTCFVETEGEDSRLFKKYRLNRGFTNYLLDGNGVIIAKNISAADLSAYVSEIG | not soluble
MNTIPLHTILKLMAHPERMAILIQLLDSERNIAELAKSLSLPATAVSNHLNRLRVEGLVDFTRYHRIIEYRLVSEEAAAILHTVRDLENKRVA | not soluble
MNTLLLDKGEQQVHLNLKYANRHGLIAGATGTGKTVSLMSLAEGFSRQGVPVFITDIKGDISGLGVAGTPNDKLLQRAAEIGVEGYQTEANPVVFWDLAGIQGHPLRTTVSEMGPTLLGRILELNDTQSSILDIVFQLADDQGLLLLDLDDLRAMLNLVADERKDISAKYGLISAQSLAAIQRSVLGLERDGGKDFFGEPALQLEDLMRTNLQGRGIINLLAANKLILTPNLYSSFLLWLLSELFENLPEVGDLDKPKLVFFIDEAHLLFEGCPASLLKRIEQIMRLIRSKGVGVYFCSQFPDDIPNEILGQLGNRIQHALRAYTPRDQKAVKTAAETFVSNPKLVVSEVISQLAVGEALVSTLAEKGVPTMVERTLIAPPRCRMGPANPEELTAIRALSPIGGKYDTLINRESAYERLNQRHTDETNGVNTAQPAANEAEQGWLSELIFGNKRRQGLAETLSKQAARTVGNQLGKQILRGLLGGILGKSTRR | not soluble
MNTLSSLLLALQQADSFFPGGAVAWSWGLETLVADGRLGAGERVTARRRQRAVRLDRSAAVRGFVEGQLRHRWHSFDRVFLLAAWNAADDVSALTNLDAQIEALTLAKELRQGSRRVGQALLGVHVALGTPGAAAYQQQVRAGNTPGHLPVLQGLLWNRLGMHREHCQLAAAHGLCTGLVSAAVRLGVMGHIDAQRVLTDIQPLITELLALEPPEPEDACGFTPMAEIAVMRHETQDLRLFANLEHHHHHH | soluble
MNTNMVASELGVSAKTVQRWVKQLNLPAERNELGHYSFTAEDVKVLKSVQKQISEGTAIQDIHLPKSAKKRTGFLVQKTSSDTERRIEQLEQKLDTLLQQRQDESELMARMSELERQLKQKADEGVSYQLLQHRREIDDILADLQSLTSQMKEFTAHSIPETAAASEKTKTRKKPLLSLFKFQTLEHHHHHH | not soluble
MNTNVTTNKSVQAAKNTGRVKPQKLADIILAQLEGMIIEGSLQPGEKLLPERELALQFEVSRPSLREAIQKLEAKGLVTRKQGGGTFVCNNLLSGFSDPLFELMSNNNESQFDLLEFRHGIEGMASYYAAMRGTPADFEQIQAKHNEIGNSQLEDDFRGEAEAVVEFHLAICAASHNAVILQLARSMSSLLADNIAQNLTVLAKRPDIFSKITDYRKRLLDAILSGQPQKAWGASHRHLAFIEEVLLKSTQENSRMERSMRRM | not soluble
MNTYVAEIGEIVRSQRRDEEYIEDITERLSRVSKELLGQRTWIRWFPYLKSIASTLYYTSTVVLGNQTLGEEYVHLFESNGLERTVPSIPSRISFVLLHSAFPLISNYLIQKAESTLTHPSTESFLGIPIRKNQKARQSFLDVFFWLRTKLFPQLQRAHIALFYITGAYYSIARRFTGIRFLSASAHSDIPALKVYRFLGYITLIQLAVSIGISLYSFLEQEKFNNKLKKEKKENNGGSDRNLDENSLFHPTFQCSICLENKNPSALFCGHLFCWTCIQEHAVAATSSASTSSARCPQCRLEFQPRDPNNLRLLSTSTHPTIYFTGIQPTGIPHLGNFFGSIEPWTELQNSVDKNILMMLSVVDQHAISLGPLPANELRQNTHQMTASLIACGVDPNRTLLFRQSDVPQIAQISWILGSLQTTSKLARLPQYKEKKERFKKGDIPVGLLTYPLLQAADVLTFKATTVPVGEDQSQHLNLLGGLAYAFNKTYETEIFPIPKQLTRESHARIRSLREPEKKMSKSSGGPRSRIEITDSRSTIIEKCQKAQSDNAGKVTYDKENRLAVSNLLDLYSAVTKTQTSEIDFSNWTTLDLKMNLAEAVDKRLAPIRQKFEELQNTGEVDKVLTENGEKAREIAEKNLEEIRRTIGFL | not soluble
MNVDLHCHSTASDGALSPTALVARAHEYGVRVLSLTDHDTLEGLEEARTAAHSLGMQLVNGVELSCTWGGATIHVLGYGFDTQAPALTEAIARLHEGRWLRAEEISRKLAIKGMPGALEGARAIQQALGDSGNAPARPHFADFMVRAGFVKDRAEAFRKWLGAGKLGDVKQHWPTLEDTVATLRASGAWVSLAHPSHYDFTRSKRRKLVGDFVQAGGHAIEVVNGMQPADQVGTLAILAREFGLLVSAGSDFHGPGNWGEIGTYRPVPEDLPPLWCRF | soluble
MNVLALDTSQRIRIGLRKGEDLFEISYTGEKKHAEILPVVVKKLLDELDLKVKDLDVVGVGIGPGGLTGLRVGIATVVGLVSPYDIPVAPLNSFEMTAKSCPADGVVLVARRARKGYHYCAVYLKDKGLNPLKEPSVVSDEELEEITKEFSPKIVLKDDLLISPAVLVEESERLFREKKTIHYYEIEPLYLQKSIAELNWEKKKRG | not soluble
MNVLDEPDRLHGAHVPIRRGSVRQLQWWEPTPAERVRVLAWTCDCQARFYELCQSGGMVYIRRTVQKDPEPEISETHRWPVQEGWRVWFDLLTGEVR | not soluble
MNVTLLVADAVWSNIESTGSVTEEQLSILQLLFGKNLEKATRIIDKRGVKKISGLPSGRSIFQVVGESQKREEYLCFPGDYCGCYSFFYDVVSRGEHQCCKHQLAARLASSLGTYNEIEVSDDHLALMLSKI | not soluble
MNVVSNTQLLEQRIADFFTLSDEHKKARVLLDTLACSCPARIFGGMVRDLGLYGVDGFSSDLDIVIGRSREELFQTLAELPVKQLRFNKFGGIRFRYHDFEFDIWNLNETWAFQEKLIFCEDESSLLNEVA | not soluble
MNWGEGEWNSFFHFFTKEFINMSESFKELFEQSIAGAQFYPGAIITAKVIDIDDDFVTLNAGLKSEGIVAVEEFYDKNGELEVKVGDTVEVALDSVEDGHGETLLSREKAKRQEAWRKLSKCHENNETVTGLISGKVKGGFTVEIGSIRAFLPGSLVDVRPVRDPSYLEGKELEFKVIKMDLKRNNIVVSRRAVVEEESSADRQALLESLHDGQELHGIVKNLTDYGAFIDLGGIDGLLHITDISWKRVKHPSEVLSVGQDVKVKVLSFDSERNRVSLGMKQLGNDPWVDLVERYPIGKRLQGKVTNITDYGCFVEIEEGVEGLVHMSEMDWTNKNVHPSKVVSLGDVVDVMVLEIDEERRRISLGMKQCVGNPWQQFASTHNKGEKVKGKIRSITDFGIFIGLDGDIDGLVHLSDISWTVPGEEAVKQFKKGQELEAVILAIDPERERISLGLKQLEGDSFASFAETYTKGSIVKGTVTAVEPKTVTVALAEDVSGTIRVSELSDERVDDATTIVKVGDEVEAKITNIDRKNRTISLSVKAKDAQDEADAIKKYSRTEAASTTLGDLLKEKMASKEGELEHHHHHH | soluble
MNYHSTNVNEIWDACLRILQDIVDERAYRTWFLPIIPVSIEGDTLTLQVPSQFFCEFLEGNFVEQLRTVLGRVIGPNASLQYNALVDNSSPKYPGTVTLAGCADGGQAAEQFDVNLLHRHM | not soluble
MNYILKQMLGGRQVIATHTCIGMDTDAFQNGRNLVTDTLEIYTGDLRKTLDTLSSIFHPSSFPLKSLRILDNADFKHPIIQGSLLLVVPNTENMHLISNKRVHARYFYYKDDVDFIINKWLDDGKEAGTHFSIGMFLTEDHVKEKYEEFLSTFEERVSWRTNYPPCFAINIDNFSEIVIGYEEFQQISTPEWRLNFKVQKREEFV | not soluble
MNYPVNPDLMPALMAVFQHVRTRIQSELDCQRLDLTPPDVHVLKLIDEQRGLNLQDLGRQMCRDKALITRKIRELEGRNLVRRERNPSDQRSFQLFLTDEGLAIHQHAEAIMSRVHDELFAPLTPVEQATLVHLLDQCLAAQPLEDI | soluble
MPAILSRVAPRTFNLVGSRLMASAARLETVPREEIHKEYDRKKTFYHRDLEIQLAGPTQLKTKPLDPTKLKFGHTYADYMMTCDWDAERGWHHPKIEPIGELKIHPGAKVLHYASELFEGMKAYRGIDNKIRMFRPEMNMARMKRTALRAALPDFDSEEMINVLTELLRLDQEWVPNSDVCSLYLRPTLIGTDPTLGVGCATEAKMFVITGPVGAYYSTGFQPVSLLADSRFIRAFPGGVGAYKMGCNYAPTIWVGKEAASKNCQQVLWLYGENEDLTEVGTMNIFLFWKNEEGDMELITPPLHRGLILPGVTRDSLLELGREWGEYKVTERTLNMEEVKKALSEKRLYEMFGSGTACVVSPVGKILYHNKVTDEYEELHIPTMSSKFGVMQKFYNTINDIQYGRIIKDGWMRDI | not soluble
MPANARSHAVLTTESKVTIRGQTTIPAPVREALKLKPGQDSIHYEILPGGQVFMCRLGDEQEDHTMNAFLRFLDADIQNNPQKTRPFNIQQGKKLVAGMDVNIDDEIGDDE | soluble
MPAPLWSPSAERIAASRMEAFRRFVNQRHALGLVDYPALHAWSVQRREAFWQAIVDFFEVRFQQPPRAVLEEGAQMPSARWFPGATLNFAEHLLRRRDDAPALIAVSEDGRREVLSHAELARHVAGLQKRLAALGIGPGDRVAALMPNTWQTVVGMLATASLGATWSSCSPDFGTQGVIDRFGQIEPRVLIACAGYRYAGKSLDLTAKLNEVLAGLPGLEQLLVVPYDRPQAQPQDYRCQAQVALWDGFYQAEGEPVFTPVPFEQPLYILYSSGTTGVPKCIVHATGGVLLQHLKEHGLHTDLGDGDRLFYYTTCGWMMWNWLASGLAVGASLVLYDGSPFHPGPERLLDLIDAEDIAVFGASAKYLAALEKAGMRPRHSHRLDSLRTLLSTGSPLAHESFDYVYRELKSDLCLSSISGGTDIVSCFAIGNPVLPVWRGELQCKALGMAVEIWDDDGRRLASGKGELVCTRHFPSIPLGFWNDPDGTRFHDAYFASFPGVWAHGDYAEETVHGGLVIHGRSDAVLNPGGVRIGTAEIYRQVEKVEEVLESIAIGQDWQGDVRVLLFVRLRDGVRLDEPLRERIRQTIRANATPRHVPAKIIQVADIPRTLSGKIVELAVRNVIHGRPVKNTDALANPQALELYRDLAEL | not soluble
MPASEDYEGQVPAWCPGCGNFQILSTIKQALAELGIEPREVLLVSGIGQAGKLPHYIKCHTFNGLHGRTLPVATAAKLANHSLHVIAVAGDGDCYAEGGNHFLHAIRRNPNISLFVHNNQIYGLTKGQASPTSAKGTHTPAQPFGYLAHPFNPLALAISQDCSFVARGFAGDQEHLKELIKAAITHRGFSLLDILQPCVTFNKVNTFKWYRERVYRLESDYDPYNQTKAFEKALEWGDKIPNGIFYKSDKETLEEMMPTLHEMPLVRKKFSPEDVKHEIEKFY | not soluble
